Measurements taken from patent publication US9809653B2, “Anti-LAMP1 antibodies and antibody drug conjugates, and uses thereof” (SANOFI, priority 2012, dated 2017).
Values joined by “and” are separate entries in the source; they are usually repeats but may differ in a detail not shown here. Equal values may be shown once. “Also recorded” adds a separate entry of the source. Read-outs that look alike come from different tables or passages of the source.

Assays:
hLAMP1_ΔGYQTI = biological target: T1, hLAMP1_ΔGYQTI (Homo sapiens, UniProt P11279); test: Binding onto membrane-anchored human LAMP1 (293-F cells) by flow cytometry; conditions: pXL5626 hLAMP1_ΔGYQTI
T1 construct: expressed in transfected cells; host or cells: 293-F (HEK293-derived), transient transfection, plasmid pXL5626
T1 sequence (P11279 with tags, fused parts or gaps limits assumed): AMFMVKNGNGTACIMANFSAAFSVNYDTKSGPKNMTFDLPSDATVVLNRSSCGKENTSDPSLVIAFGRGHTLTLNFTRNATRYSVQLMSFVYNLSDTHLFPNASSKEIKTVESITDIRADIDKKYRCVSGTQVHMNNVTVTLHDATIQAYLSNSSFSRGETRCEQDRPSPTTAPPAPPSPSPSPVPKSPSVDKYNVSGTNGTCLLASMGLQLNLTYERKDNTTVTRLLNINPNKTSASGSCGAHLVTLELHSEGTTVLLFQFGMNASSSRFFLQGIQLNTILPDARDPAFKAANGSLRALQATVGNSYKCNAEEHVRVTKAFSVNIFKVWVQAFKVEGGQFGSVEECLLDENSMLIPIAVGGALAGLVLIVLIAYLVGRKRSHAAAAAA
Experimental: Different LAMP1 proteins were expressed at the cell membrane of HEK293 cells after transient expression from mammalian plasmids encoding the entire coding sequence of LAMP1 deleted of the intracellular lysosome-targeting motif GYQTI and substituted by a 5-Ala repeat sequence.
(§1) Two days post transfection cells were processed, analyzed by flow cytometry (Guava® easyCyte™ 8HT) as mentioned in example 4.7, and the mean fluorescence was recorded. This fluorescence represents a semi-quantitative assessment of binding.

recombinant human LAMP2 = biological target: T2, recombinant human LAMP2 (Homo sapiens, UniProt P13473); test: Specificity ELISA on recombinant human LAMP2; format: binding
T2 construct: purchased R&D Systems 6228-LM
Experimental: LAMP2 is the closest member of the LAMP family with 35% sequence identity to LAMP1. […] Anti-LAMP1 antibodies were added to the plates and detected by using rabbit anti-mouse IgG conjugated with horseradish peroxidase (Sigma; #A9044). Antibody binding was visualized by adding TMB-H2O2 buffer and read at a wavelength of 450 nm.
LAMP2 is the closest member of the LAMP family with 35% sequence identity to LAMP1. Specificity of MAb4 was evaluated by ELISA as described in example 4.6 with either LAMP1 or LAMP2 soluble proteins, as shown in FIG. 41.

[1] = biological target: T3, recombinant human LAMP1 (29-382 of SEQ ID NO: 28) (Homo sapiens, UniProt P11279); test: ELISA on recombinant human LAMP1; format: binding
T3 construct: made in house; host or cells: HEK293 (293-F), transient expression, IMAC-purified
T3 sequence (P11279 with tags, fused parts or gaps): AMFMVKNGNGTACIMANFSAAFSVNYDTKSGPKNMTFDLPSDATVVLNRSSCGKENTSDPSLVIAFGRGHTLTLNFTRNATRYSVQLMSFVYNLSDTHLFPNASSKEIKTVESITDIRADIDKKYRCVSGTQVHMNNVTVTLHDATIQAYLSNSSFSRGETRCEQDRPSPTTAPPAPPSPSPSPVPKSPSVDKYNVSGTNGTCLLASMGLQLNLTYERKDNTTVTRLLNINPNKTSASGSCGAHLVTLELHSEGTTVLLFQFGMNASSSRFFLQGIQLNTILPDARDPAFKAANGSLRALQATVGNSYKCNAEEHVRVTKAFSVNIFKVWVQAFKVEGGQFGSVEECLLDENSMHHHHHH

[2] = biological target: T4, recombinant human LAMP1 coated on plate (Homo sapiens, UniProt P11279); test: Binding competition between anti-LAMP1 mAbs by ELISA
T4 construct: made in house; host or cells: HEK293 (293-F), transient expression, IMAC-purified
T4 sequence (P11279 with tags, fused parts or gaps): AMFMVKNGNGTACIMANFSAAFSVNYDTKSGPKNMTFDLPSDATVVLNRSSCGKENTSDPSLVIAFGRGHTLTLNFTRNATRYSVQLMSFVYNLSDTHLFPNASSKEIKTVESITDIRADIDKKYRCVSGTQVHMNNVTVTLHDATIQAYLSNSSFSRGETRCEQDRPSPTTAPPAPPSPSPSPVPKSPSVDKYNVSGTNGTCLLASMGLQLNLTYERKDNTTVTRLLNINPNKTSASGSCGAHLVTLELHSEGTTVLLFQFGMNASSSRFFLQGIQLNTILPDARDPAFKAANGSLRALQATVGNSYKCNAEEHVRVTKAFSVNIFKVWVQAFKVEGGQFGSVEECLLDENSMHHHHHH
Description: MAb format was chosen so that the two mAbs had different Fc domains (either human or murine). […] The results were reported as a percentage of the value obtained from the mAb alone at the same concentration.
MAb format was chosen so that the two mAbs had different Fc domains (either human or murine). Individual measurements of mAb binding could be performed specifically by their unique specific binding to Fc (with Peroxidase-AffiniPure Goat Anti-Human IgG Ab, Fcγ Fragment Specific (Jackson 109-035-098) or with Peroxidase-AffiniPure Goat Anti-Mouse IgG Ab, Fcγ Fragment Specific (Jackson 115-035-164)). Results were reported as a percentage of the value obtained from the mAb alone at the same concentration, see Table 8.

mLAMP1_ΔGYQTI = biological target: T5, mLAMP1_ΔGYQTI (Mus musculus, UniProt P11438); test: Binding onto membrane-anchored murine LAMP1 (293-F cells) by flow cytometry; conditions: pXL6009 mLAMP1_ΔGYQTI
T5 construct: expressed in transfected cells; host or cells: 293-F (HEK293-derived), transient transfection, plasmid pXL6009
T5 sequence (P11438 with tags, fused parts or gaps limits assumed): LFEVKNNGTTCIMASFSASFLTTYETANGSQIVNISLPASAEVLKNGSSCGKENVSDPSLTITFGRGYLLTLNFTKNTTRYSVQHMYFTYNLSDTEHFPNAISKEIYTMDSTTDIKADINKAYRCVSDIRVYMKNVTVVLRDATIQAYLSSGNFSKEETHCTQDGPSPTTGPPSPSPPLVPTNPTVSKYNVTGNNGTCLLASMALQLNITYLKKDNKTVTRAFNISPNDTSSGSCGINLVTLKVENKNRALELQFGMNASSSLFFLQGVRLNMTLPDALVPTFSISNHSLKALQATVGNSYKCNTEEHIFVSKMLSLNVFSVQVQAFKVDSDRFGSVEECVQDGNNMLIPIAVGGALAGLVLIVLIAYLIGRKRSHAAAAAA
Description: Different LAMP1 proteins were expressed at the cell membrane of HEK293 cells after transient expression from mammalian plasmids encoding the entire coding sequence of LAMP1 deleted of the intracellular lysosome-targeting motif GYQTI and substituted by a 5-Ala repeat sequence. Mammalian plasmids had similar expression signals as plasmids used to produce recombinant LAMP1 described in example 6.2. Table 14 below lists all the plasmids that were designed in order to confirm the results obtained with soluble LAMP1 protein by ELISA in example 6.3 and further characterize the binding domains of the anti-LAMP1 mAbs.
as §1, with “Each expression plasmid described in example 6.4 was complexed with 293Fectin™ in suspension-cultivated 293-F cells as using the protocol outlined in example 6.2. Two” for “Two”

[3] = ELISA (Table 7), read-out: EC50
[4] = ELISA (Table 13), read-out: EC50 (nM) human LAMP1
[5] = ELISA (Table 21), read-out: EC50 obtained for murine hybridoma mAbs hLAMP1
[6] = mAb alone 0.06 mg/L, Secondary Ab Anti-Human IgG_HRP
[7] = mAb alone 0.06 mg/L, Secondary Ab Anti-Mouse IgG_HRP
[8] = mAb alone 15 mg/L, Secondary Ab Anti-Human IgG_HRP
[9] = mAb alone 15 mg/L, Secondary Ab Anti-Mouse IgG_HRP

T2 sequence (P13473 with tags, fused parts or gaps): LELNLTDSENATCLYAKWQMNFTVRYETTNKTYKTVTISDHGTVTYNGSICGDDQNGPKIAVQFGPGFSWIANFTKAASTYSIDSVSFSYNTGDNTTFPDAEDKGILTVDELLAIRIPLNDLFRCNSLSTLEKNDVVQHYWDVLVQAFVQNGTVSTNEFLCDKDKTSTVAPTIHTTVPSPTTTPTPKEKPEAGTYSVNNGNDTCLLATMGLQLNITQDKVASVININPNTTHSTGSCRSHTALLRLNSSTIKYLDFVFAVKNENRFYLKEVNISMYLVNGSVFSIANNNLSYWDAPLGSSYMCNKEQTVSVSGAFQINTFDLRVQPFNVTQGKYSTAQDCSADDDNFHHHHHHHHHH

B1: MAb1: murine monoclonal anti-LAMP1 antibody, VH SEQ ID NO: 1, VL SEQ ID NO: 5 (antibody, V domains shown)
VH: QVQLQQSGAELVKPGASVKMSCKASGYIFTNYNIHWVKKSPGQGLEWIGAIYPGNGDAPYSQKFKDKATLTADKSSSTTYMQLSRLTSEDSAVYYCVRANWDVAFAYWGQGTLVSVSA
VL: DIQMTQSPPSLSASLGGKVTITCKASQDIDRYMAWYQDKPGKGPRLLIHDTSTLQPGIPSRFSGSGSGRDYSFSISNLEPEDIATYYCLQYDNLWTFGGGTKLEIK
modifications: Antibody Fragment; antibody fragment
**Q.** How did the Binding call (hLAMP1_ΔGYQTI; Table 17 Experiment no1) turn out when B1 was run?
**A.** Binding

**Q.** And the Mean fluorescence (hLAMP1_ΔGYQTI; Table 17 Experiment no1)?
**A.** 1748

**Q.** What about the Binding call (hLAMP1_ΔGYQTI; Table 17 Experiment no2) of the same molecule?
**A.** Full binding

**Q.** What about the Mean fluorescence (hLAMP1_ΔGYQTI; Table 17 Experiment no2) of the same molecule?
**A.** 551

**Q.** What about the Binding call (hLAMP1_ΔGYQTI; Table 18) of the same molecule?
**A.** Binding

**Q.** What about the Mean fluorescence (hLAMP1_ΔGYQTI; Table 18) of the same molecule?
**A.** 914

**Q.** And the “binding to LAMP2” value (recombinant human LAMP2)?
**A.** No binding

**Q.** What about the EC50 [1, 3] of the same molecule?
**A.** 0.18 nM

**Q.** What about the EC50 [1, 4] of the same molecule?
**A.** 0.18 nM

**Q.** What about the EC50 [1, 5] of the same molecule?
**A.** 0.18 nM

**Q.** And the EC50 ([1]; ELISA, read-out: EC50 to LAMP1)?
**A.** 0.16 nM and ~0.2 nM

**Q.** And the “competition with H4A3 for binding to LAMP1” value ([2]; ELISA)?
**A.** does not compete

**Q.** What about the “Percentage of signal compared to mAb control alone” value (“Percentage of signal” below) [2, 6] of the same molecule?
**A.** 0%

**Q.** And the “Percentage of signal” value [2, 7]?
**A.** 100%

**Q.** What about the “Percentage of signal” value [2, 8] of the same molecule?
**A.** 0%

**Q.** What about the “Percentage of signal” value [2, 9] of the same molecule?
**A.** 100%

**Q.** What about the Binding call (mLAMP1_ΔGYQTI; Table 17 Experiment no1) of the same molecule?
**A.** No binding

**Q.** And the Mean fluorescence (mLAMP1_ΔGYQTI; Table 17 Experiment no1)?
**A.** 4

**Q.** And the Binding call (mLAMP1_ΔGYQTI; Table 17 Experiment no2)?
**A.** No binding

**Q.** And the Mean fluorescence (mLAMP1_ΔGYQTI; Table 17 Experiment no2)?
**A.** 2

**Q.** What about the Mean fluorescence (mLAMP1_ΔGYQTI; Table 18) of the same molecule?
**A.** 13

B2: MAb2: murine monoclonal anti-LAMP1 antibody, VH SEQ ID NO: 8, VL SEQ ID NO: 12 (antibody, V domains shown)
VH: QVQLQQSAAELARPGASVKMSCKASGYTFTSYTMHWVKQRPGQGLEWIGYFNPSSGYPEYNQKFKDKTTLTADKSSNTAFIQLNSLTSEDSAVYYCSRGYYYGSRGYALDFWGQGASVTVSS
VL: NIVLTQSPVSLAVSLGQRATISCRASESVDINGNTFMHWYQQKPGQSPKLVIYAASNIESGVPARFSGSGSSTDFTFTIDPVEADDVATYYCQQNIEDPWTFGGGTKVEIK
modifications: antibod fragment; antibody fragment
**Q.** How did the Binding call (hLAMP1_ΔGYQTI; Table 17 Experiment no1) turn out when B2 was run?
**A.** binding

**Q.** What about the Mean fluorescence (hLAMP1_ΔGYQTI; Table 17 Experiment no1) of the same molecule?
**A.** 1183

**Q.** And the Binding call (hLAMP1_ΔGYQTI; Table 18)?
**A.** Binding

**Q.** What about the Mean fluorescence (hLAMP1_ΔGYQTI; Table 18) of the same molecule?
**A.** 757

**Q.** What about the “binding to LAMP2” value (recombinant human LAMP2) of the same molecule?
**A.** No binding

**Q.** And the EC50 [1, 3]?
**A.** 0.25 nM

**Q.** And the EC50 [1, 4]?
**A.** 0.25 nM

**Q.** What about the EC50 [1, 5] of the same molecule?
**A.** 0.25 nM

**Q.** And the EC50 ([1]; ELISA, read-out: EC50 to LAMP1)?
**A.** ~0.3 nM

**Q.** And the “competition between MAb2 and MAb3 for binding to LAMP1” value ([2]; ELISA)?
**A.** partially compete

**Q.** What about the “competition with H4A3 for binding to LAMP1” value ([2]; ELISA) of the same molecule?
**A.** partially competes

**Q.** What about the “competition with MAb1 for binding to LAMP1” value ([2]; ELISA) of the same molecule?
**A.** No competition was observed; also recorded: does not compete

**Q.** What about the “Percentage of signal” value [2, 6] of the same molecule?
**A.** 0%

**Q.** What about the “Percentage of signal” value [2, 7] of the same molecule?
**A.** 100%

**Q.** And the “Percentage of signal” value [2, 8]?
**A.** 0%

**Q.** And the “Percentage of signal” value [2, 9]?
**A.** 100%

**Q.** And the Binding call (mLAMP1_ΔGYQTI; Table 17 Experiment no1)?
**A.** No binding

**Q.** And the Mean fluorescence (mLAMP1_ΔGYQTI; Table 17 Experiment no1)?
**A.** 21

**Q.** What about the Binding call (mLAMP1_ΔGYQTI; Table 18) of the same molecule?
**A.** No binding

**Q.** What about the Mean fluorescence (mLAMP1_ΔGYQTI; Table 18) of the same molecule?
**A.** 27
